system: Escherichia coli TOP10; experiment: shrunken log2 fold change of peptide-encoding DNA abundance (4.5 h post-induction vs induction); higher = less antimicrobial activity (less host growth inhibition); conditions: time post-induction: 4.5 h; library: site-saturation at positions 5, 18, 19, 20
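Note: peptides expressed intracellularly from a pBAD plasmid library in pooled LB shake-flask culture, induced with 0.3% L-arabinose, DNA abundance read by NGS, three biological replicates, DESeq2 with apeglm shrinkage.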

First: RRIRKRPPRLPRPRPRPMADPRP
Second: RRIRSRPPRLPRPRPRPPKNPRP
The “shrunken log2 fold change” value of the first is lower: -0.000921 for the first, 0.223 for the second.

Compared with RRIRGRPPRLPRPRPRPFRMPRP, RRIRERPPRLPRPRPRPIMGPRP is lower in “shrunken log2 fold change” value: 0.00538 for the first, -0.21 for the second.

Compared with RRIRGRPPRLPRPRPRPLRRPRP, RRIRFRPPRLPRPRPRPIYPPRP is lower in “shrunken log2 fold change” value: 1.54 for the first, -0.574 for the second.

First: RRIRCRPPRLPRPRPRPEFGPRP
Second: RRIRARPPRLPRPRPRPDECPRP
The “shrunken log2 fold change” value of the first is higher: 0.241 for the first, -0.0409 for the second.

Going from RRIRGRPPRLPRPRPRPDQFPRP to RRIRLRPPRLPRPRPRPMCFPRP, the “shrunken log2 fold change” value falls from 0.704 to -0.332.

Going from RRIRSRPPRLPRPRPRPGRVPRP to RRIRIRPPRLPRPRPRPWLMPRP, the “shrunken log2 fold change” value falls from 0.162 to -0.202.

Compared with RRIRGRPPRLPRPRPRPGPPPRP, RRIRYRPPRLPRPRPRPCFWPRP is lower in “shrunken log2 fold change” value: 0.97 for the first, -0.136 for the second.

First: RRIRKRPPRLPRPRPRPHHGPRP
Second: RRIRDRPPRLPRPRPRPAIVPRP
The “shrunken log2 fold change” value of the first is lower: -0.11 for the first, 0.41 for the second.

RRIRYRPPRLPRPRPRPQNRPRP and RRIRKRPPRLPRPRPRPPVSPRP are within 0.2 log units of each other in “shrunken log2 fold change” value: -0.0755 for the first, 0.0866 for the second.

RRIRMRPPRLPRPRPRPHTVPRP and RRIRERPPRLPRPRPRPASVPRP are within 0.2 log units of each other in “shrunken log2 fold change” value: -0.0708 for the first, -0.0789 for the second.

First: RRIRSRPPRLPRPRPRPATIPRP
Second: RRIRDRPPRLPRPRPRPTRPPRP
The “shrunken log2 fold change” value of the first is lower: 0.115 for the first, 1.13 for the second.

Compared with RRIRWRPPRLPRPRPRPQKHPRP, RRIRSRPPRLPRPRPRPKTYPRP is lower in “shrunken log2 fold change” value: -0.15 for the first, -0.543 for the second.

First: RRIRKRPPRLPRPRPRPRECPRP
Second: RRIRCRPPRLPRPRPRPYYNPRP
The “shrunken log2 fold change” value of the first is higher: -0.0199 for the first, -1.2 for the second.

Compared with RRIRWRPPRLPRPRPRPVISPRP, RRIRQRPPRLPRPRPRPDNHPRP is lower in “shrunken log2 fold change” value: -0.0992 for the first, -0.35 for the second.

Going from RRIRQRPPRLPRPRPRPPGCPRP to RRIRLRPPRLPRPRPRPKCVPRP, the “shrunken log2 fold change” value falls from 0.342 to 0.0912.

Compared with RRIRCRPPRLPRPRPRPGMTPRP, RRIRARPPRLPRPRPRPMNIPRP is lower in “shrunken log2 fold change” value: 0.0507 for the first, -0.583 for the second.

RRIRDRPPRLPRPRPRPDFTPRP and RRIRMRPPRLPRPRPRPHQEPRP are within 0.2 log units of each other in “shrunken log2 fold change” value: -0.0299 for the first, 0.018 for the second.

Going from RRIRDRPPRLPRPRPRPIKTPRP to RRIRSRPPRLPRPRPRPRWLPRP, the “shrunken log2 fold change” value rises from 0.058 to 0.297.

RRIRIRPPRLPRPRPRPADCPRP and RRIRVRPPRLPRPRPRPHNAPRP are within 0.2 log units of each other in “shrunken log2 fold change” value: 0.035 for the first, -0.164 for the second.

RRIRARPPRLPRPRPRPLRKPRP and RRIRDRPPRLPRPRPRPAMAPRP are within 0.2 log units of each other in “shrunken log2 fold change” value: 0.62 for the first, 0.575 for the second.

Compared with RRIRRRPPRLPRPRPRPPLIPRP, RRIRNRPPRLPRPRPRPKQDPRP is lower in “shrunken log2 fold change” value: 0.511 for the first, -0.0415 for the second.

Going from RRIRPRPPRLPRPRPRPNKLPRP to RRIRKRPPRLPRPRPRPFWHPRP, the “shrunken log2 fold change” value falls from 0.448 to 0.00192.

RRIRSRPPRLPRPRPRPEIHPRP and RRIRHRPPRLPRPRPRPDVIPRP are within 0.2 log units of each other in “shrunken log2 fold change” value: 0.0186 for the first, 0.0849 for the second.

First: RRIRSRPPRLPRPRPRPFVCPRP
Second: RRIRSRPPRLPRPRPRPKGYPRP
The “shrunken log2 fold change” value of the first is lower: -0.326 for the first, 0.00982 for the second.

Compared with RRIRSRPPRLPRPRPRPCPSPRP, RRIRDRPPRLPRPRPRPGTWPRP is higher in “shrunken log2 fold change” value: 0.0411 for the first, 0.475 for the second.

First: RRIRKRPPRLPRPRPRPPRGPRP
Second: RRIRARPPRLPRPRPRPQAWPRP
The “shrunken log2 fold change” value of the first is higher: 1.13 for the first, 0.376 for the second.

Going from RRIRARPPRLPRPRPRPCEPPRP to RRIRYRPPRLPRPRPRPQAFPRP, the “shrunken log2 fold change” value falls from 0.39 to -0.142.

Compared with RRIRPRPPRLPRPRPRPCCNPRP, RRIRARPPRLPRPRPRPTHKPRP is higher in “shrunken log2 fold change” value: -0.301 for the first, 0.577 for the second.

First: RRIRDRPPRLPRPRPRPCASPRP
Second: RRIRRRPPRLPRPRPRPWPGPRP
The “shrunken log2 fold change” value of the first is lower: -0.0652 for the first, 0.287 for the second.

RRIRFRPPRLPRPRPRPMRKPRP and RRIRHRPPRLPRPRPRPWGWPRP are within 0.2 log units of each other in “shrunken log2 fold change” value: 0.222 for the first, 0.284 for the second.

Compared with RRIRGRPPRLPRPRPRPTYWPRP, RRIRWRPPRLPRPRPRPAFAPRP is higher in “shrunken log2 fold change” value: 0.186 for the first, 1.23 for the second.

RRIRWRPPRLPRPRPRPHSGPRP and RRIRKRPPRLPRPRPRPQWIPRP are within 0.2 log units of each other in “shrunken log2 fold change” value: 0.00842 for the first, 0.00082 for the second.

Compared with RRIRLRPPRLPRPRPRPIVYPRP, RRIRNRPPRLPRPRPRPTYSPRP is higher in “shrunken log2 fold change” value: -0.43 for the first, -0.226 for the second.

First: RRIRPRPPRLPRPRPRPSFWPRP
Second: RRIRARPPRLPRPRPRPLYFPRP
The “shrunken log2 fold change” value of the first is higher: 0.129 for the first, -0.282 for the second.

Compared with RRIRDRPPRLPRPRPRPCFAPRP, RRIRERPPRLPRPRPRPYVWPRP is lower in “shrunken log2 fold change” value: 0.512 for the first, -0.401 for the second.

RRIRMRPPRLPRPRPRPRCRPRP and RRIRERPPRLPRPRPRPPVPPRP are within 0.2 log units of each other in “shrunken log2 fold change” value: 0.619 for the first, 0.45 for the second.

Going from RRIRGRPPRLPRPRPRPNHIPRP to RRIRYRPPRLPRPRPRPWFHPRP, the “shrunken log2 fold change” value rises from -0.444 to -0.17.

RRIRGRPPRLPRPRPRPDCCPRP was tested, and the “shrunken log2 fold change” value was 1.34.
